Assay [1] has as its target EGL-8 used as bait in GST pull-downs of UNC-16 domains (Fig. 5D, 7J) (UniProt G5EBH0). Kind of assay: GST pull-down. The settings on record: GST::EGL-8 bait (x label in J' printed as GST::RAB-8); in vitro translated HA-tagged prey; three independent replicates; parent: est. 3.2; read off a plot.
The target in assay [2] is RAB-10 used in GST pull-downs, loaded with GTPγS or GDP (UniProt Q94148). Description: GST pull-down. The settings on record: GST::RAB-10 loaded with GTPγS; in vitro translated HA-tagged prey; three independent replicates; parent: est. 6.1; read off a plot.
UniProt Q94148, sequence (Q94148 whole entry, the tested form may be a part): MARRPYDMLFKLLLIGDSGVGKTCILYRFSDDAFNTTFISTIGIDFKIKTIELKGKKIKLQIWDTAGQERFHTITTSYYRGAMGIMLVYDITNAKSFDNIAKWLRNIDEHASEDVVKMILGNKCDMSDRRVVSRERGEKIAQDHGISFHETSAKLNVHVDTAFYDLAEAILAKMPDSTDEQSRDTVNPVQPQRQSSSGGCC
Assay [3] concerns the target purified UNC-16-LZII domain fragment (260–849 aa) (C. elegans). Description: native gel or EMSA; native-PAGE of purified UNC-16-LZII domain and its L360P variant (260–849 aa); dimer formation; three independent experiments.
Assay [4] concerns the target T1, purified UNC-16-LZII domain fragment (260–849 aa), L360P variant.
T1 chain: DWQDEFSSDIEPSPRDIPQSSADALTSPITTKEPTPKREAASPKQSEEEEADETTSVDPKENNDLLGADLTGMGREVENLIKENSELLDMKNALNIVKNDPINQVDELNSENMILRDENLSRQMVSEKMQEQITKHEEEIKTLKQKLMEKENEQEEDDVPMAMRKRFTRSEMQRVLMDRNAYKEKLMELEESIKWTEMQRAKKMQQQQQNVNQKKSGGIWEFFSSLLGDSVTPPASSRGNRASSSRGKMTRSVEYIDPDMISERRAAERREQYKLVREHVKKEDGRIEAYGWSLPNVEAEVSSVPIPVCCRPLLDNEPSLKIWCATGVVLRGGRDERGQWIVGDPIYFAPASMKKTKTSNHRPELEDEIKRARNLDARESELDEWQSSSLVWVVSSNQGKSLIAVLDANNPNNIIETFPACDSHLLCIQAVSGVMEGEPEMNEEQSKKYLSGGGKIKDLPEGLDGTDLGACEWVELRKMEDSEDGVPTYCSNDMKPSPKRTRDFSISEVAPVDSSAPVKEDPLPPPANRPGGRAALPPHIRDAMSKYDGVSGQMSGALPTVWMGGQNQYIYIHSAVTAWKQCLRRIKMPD
Kind of assay: Native-PAGE. The settings on record: chain shown with the change; three independent experiments; P = 0.0034; parent: est. 0.86; read off a plot.

UniProt G5EBH0, sequence (G5EBH0 whole entry, the tested form may be a part): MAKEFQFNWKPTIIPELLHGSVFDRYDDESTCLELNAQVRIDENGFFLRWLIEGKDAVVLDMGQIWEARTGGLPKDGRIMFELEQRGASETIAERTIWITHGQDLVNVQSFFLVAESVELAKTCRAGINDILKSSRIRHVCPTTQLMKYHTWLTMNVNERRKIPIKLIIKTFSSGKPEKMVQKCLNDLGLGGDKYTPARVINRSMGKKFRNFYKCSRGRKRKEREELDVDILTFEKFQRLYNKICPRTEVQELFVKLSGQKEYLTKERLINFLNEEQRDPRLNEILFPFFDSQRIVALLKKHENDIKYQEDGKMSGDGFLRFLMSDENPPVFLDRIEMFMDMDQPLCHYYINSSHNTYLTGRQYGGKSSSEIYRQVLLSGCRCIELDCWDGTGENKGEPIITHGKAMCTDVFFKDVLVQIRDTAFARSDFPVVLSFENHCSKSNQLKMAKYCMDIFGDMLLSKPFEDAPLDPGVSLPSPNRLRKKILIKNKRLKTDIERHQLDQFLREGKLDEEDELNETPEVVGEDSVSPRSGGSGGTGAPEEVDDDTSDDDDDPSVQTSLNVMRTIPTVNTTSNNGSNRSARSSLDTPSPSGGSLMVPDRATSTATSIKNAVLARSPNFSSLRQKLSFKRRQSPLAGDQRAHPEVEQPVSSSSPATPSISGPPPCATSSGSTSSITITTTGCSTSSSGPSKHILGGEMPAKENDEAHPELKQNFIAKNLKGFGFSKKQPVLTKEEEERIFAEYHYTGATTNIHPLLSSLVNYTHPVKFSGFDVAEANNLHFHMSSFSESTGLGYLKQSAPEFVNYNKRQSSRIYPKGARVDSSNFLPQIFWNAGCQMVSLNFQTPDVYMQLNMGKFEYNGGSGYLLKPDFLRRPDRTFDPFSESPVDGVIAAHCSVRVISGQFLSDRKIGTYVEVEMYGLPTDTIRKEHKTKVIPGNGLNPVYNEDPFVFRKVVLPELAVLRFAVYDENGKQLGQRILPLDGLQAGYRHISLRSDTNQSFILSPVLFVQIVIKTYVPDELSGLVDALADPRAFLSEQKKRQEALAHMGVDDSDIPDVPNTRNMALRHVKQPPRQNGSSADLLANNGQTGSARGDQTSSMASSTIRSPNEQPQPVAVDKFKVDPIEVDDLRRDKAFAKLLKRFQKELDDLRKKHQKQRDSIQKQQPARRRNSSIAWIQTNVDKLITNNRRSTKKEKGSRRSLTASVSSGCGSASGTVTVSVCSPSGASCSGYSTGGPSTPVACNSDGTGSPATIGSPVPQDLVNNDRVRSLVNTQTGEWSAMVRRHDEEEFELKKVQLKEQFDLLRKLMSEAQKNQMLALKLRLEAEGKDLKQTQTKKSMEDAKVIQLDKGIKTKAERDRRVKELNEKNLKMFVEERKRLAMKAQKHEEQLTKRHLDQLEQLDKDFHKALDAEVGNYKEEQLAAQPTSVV

Consider “HA-tagged UNC-16 fragment containing the LZII domain (in vitro translated) L353A; N354A; I355A; V356A; K357A; N358A; D359A; L360A; I361A; N362A; Q363A; V364A; D365A; E366A; L367A”, for which the response (binding/input) in assay [1] and in assay [2] was 0.1 throughout. As for “HA-tagged UNC-16 fragment containing the LZII domain (in vitro translated) L360P”, the response (binding/input) in assay [1] was 0.65. Turning to “purified UNC-16-LZII domain fragment (260–849 aa) (domain or fragment)”, the stoichiometry N in assay [3] came to 2.

B1: purified UNC-16-LZII domain fragment (260–849 aa) L360P (protein)
chain: DWQDEFSSDIEPSPRDIPQSSADALTSPITTKEPTPKREAASPKQSEEEEADETTSVDPKENNDLLGADLTGMGREVENLIKENSELLDMKNALNIVKNDPINQVDELNSENMILRDENLSRQMVSEKMQEQITKHEEEIKTLKQKLMEKENEQEEDDVPMAMRKRFTRSEMQRVLMDRNAYKEKLMELEESIKWTEMQRAKKMQQQQQNVNQKKSGGIWEFFSSLLGDSVTPPASSRGNRASSSRGKMTRSVEYIDPDMISERRAAERREQYKLVREHVKKEDGRIEAYGWSLPNVEAEVSSVPIPVCCRPLLDNEPSLKIWCATGVVLRGGRDERGQWIVGDPIYFAPASMKKTKTSNHRPELEDEIKRARNLDARESELDEWQSSSLVWVVSSNQGKSLIAVLDANNPNNIIETFPACDSHLLCIQAVSGVMEGEPEMNEEQSKKYLSGGGKIKDLPEGLDGTDLGACEWVELRKMEDSEDGVPTYCSNDMKPSPKRTRDFSISEVAPVDSSAPVKEDPLPPPANRPGGRAALPPHIRDAMSKYDGVSGQMSGALPTVWMGGQNQYIYIHSAVTAWKQCLRRIKMPD
With B1, the other: ratio of dimer to monomer in assay [4] worked out at 0.58.

The record behind these values is PMC11891140.
